From publication PMC8636641

Test system: dTao (Drosophila melanogaster)
Assay: fluorescence quenching (initial fluorescence, MST instrument)
Conditions: inosine homopolymer strand; Pull-down: TAP buffer 50 mM Tris pH 7.5, 100 mM NaCl, 5% glycerol, 0.2% NP-40, 1.5 mM MgCl2, 60 min; quenching assay buffer not stated (dTao storage 20 mM Tris …)

Substance: FITC-poly(I:C)
- Kd: 42 nM
